In the nanobody polyreactivity screen of Harvey et al. (2022):

assay: yeast display, Sf9 membrane polyspecificity reagent, FACS + sequencing; frameworks hold sequencing errors
How it was run: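 After 36–48 hours of galactose induction, yeast (Saccharomyces cerevisiae BJ5465) displaying a synthetic nanobody library were stained at 4 °C for 1 hour with 10% biotinylated, detergent-solubilized Sf9 membrane reagent. Streptavidin microbeads enriched the stained cells before FACS sorting into low and high (top ~1%) gates on anti-HA and streptavidin fluorescence. Each clone's polyreactivity label reflects its gate of origin.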

Sequence | polyreactivity (PSR sort gate)
QVQLVESGGGLVQAGGSLRLSCAASGIILAHYAMGWYRQAPGKERELVAGISRSGTRTYYADSVKGRFTISRDNAKNTVYLQMNSLKPEDTAVYYCNKDAYTYWYFEMGYWGQGTQVTVSS | high polyreactivity
QVQLVESGGGLDQARGSLRLSCAASGRIFYTYAMGWYRRAPGKERELVAAISRSGTSTYYADSVKGRFTISRDNAKNTVYLQMNSLKPEDTAVYYCAAAKWYSVAYVGTFKYDYWGQGTQVTVSS | high polyreactivity
QVQLVESGGGLVQAGGSRSLSCAASGRTFTLNVMGWYRQAPGKERELVAAISTSSGRTYYADSVKGRFTISRDNAKNTVYLQMNSLKPEDTAVYYCNAVAHRQAQGDWGQGTQVTVSS | low polyreactivity
QVQIVESGGGLVQAGGSLRLSCADSGIIFYYNAMGWYRQAPGKERELVAAIDDRGDSTYYADSVKGRFTISRDNAKNTVYLQMNSMKPEDTAVYYCAARDRYLYFDAMDYWGQGTLVTVSS | low polyreactivity
QVQLVESGGGLVQAGGSLRLSCAASGSTFPYYAMGWYRQAPGKERELVAAITSSTGRTYYADSVKGRFTISRDNAKNSVYLQMNSLKPEDSAVYYCNAEVYSDPYNDHDYWGQGTQVTVSS | low polyreactivity
QVQLVESGGGLVQAGGSLRLSCAASGSIFRYYAMGWYRQAPGKERESVADITSSGGSTYYADSVKGRFTISRDNAKNTVYLQMNSLKPEDTAVSYCAREDNLRHQSDSRYDYWGQGTQVTVSS | low polyreactivity
QVQLVESGGGLVKEGGSLRLSCAASGSIFDWYVMGWYRQAPRKERELVATITRDGSTNYADSVKGRFTISRDNAKNTVYLQMNSLKPEDTAVYYCAAVIRSNRLYDGGYWGQGTQVTVSS | low polyreactivity
QVQLVESGGGLVQAGGSLRLSCAASGRTFWYNAMGWYRPAPGKERELVAAIRGSGGSTYYADSVKGRFTISRDNAKNTVYLQLNSLKPEDTAVYYCAARGFYRRTYQYENNYWGQGTQVTVSS | high polyreactivity
QVQLVESGGGLVQAGGSLRLSCAASGRIFLHYAMGWYRQAPGKERELVAGITKSGSSTYYADSVKGRFTISRDNAKNTVYLQMNSLKPEDTAVYYCAARKIHHHVYGAWPRYGYWGQGTQVTVSS | high polyreactivity
QVQLVESGAGLVQAGGSLRLSCAASGRIFTFNTMGWYRQAPGKERELVAAITSSSARTYYADSVKGRFTISRYNAKNTVYLQMNSLKPEDTAVYYCATRDWVGSVRMGYWGQGTQVTVSS | high polyreactivity
QDQLVESGGGLVQAGGSLRLSCAASGLTLYKNGLGWYRQAHGKEMELVAVISRSGGRTYYADSVKGRFTISRDNAKYTVYLQMNSLKPEDTAVYYCAARQYGPSYTYYYWGQGTQVTVSS | high polyreactivity
QVQLVESGGGLVQAGGSLRLSCAASVSIFYFYAMGWYIQAPGKERELVAAITDGGSTHYADSVKGRFTISRDNAKNTVYLQMNSLKPEDTAVYYCAAQWHYYLGSGYQYDYWGQGTQVTVSS | low polyreactivity
QVQLVESGGGLVQAGGSLRLSCAASGRTLSYYARGWYRQAPGKERELVASIRRRTGSTYYAESVKGRFTISRDNAKNSVYLQMNSLTPEDTAVYYCAADLIYYGEYDYWGQGTQVTVSS | high polyreactivity
QVQLVESGGGLVQAGGSLRLSCAASGRIIGYYAMGWYRQAPGKERELVAAITSSGSRTYYADSVKGRFTISRDNAKNTVYLQMNSLKPEDTAVYYCATTKVYYSSKSSYYYWGQGTQVTVSS | high polyreactivity
QVQHVESGGGLVQAGGSLRLSCAASGFTSWKYAMGWYRQAPGKERELVAAISQSGGRTYADSVKGRFTISRDNAKNTVYLQMNSLKPEDTAVYYCAARYPRRSQKYQYWGQGTQVTVSS | high polyreactivity
QVQLVDSGGGLVQAGGSLRLSCAASGFTFQRKAMGWYRQATGKERELVAAISKSGGSTYYADSVKARFTISRDNEKNTVYLEMNSLKPEDTAVYYCASTALFSGLTKRYYWGQGTQVTVSS | high polyreactivity
QVQLVESGGGLVQAGGSLRLSCAASGRIFKSYAMGWYRQAPGKERELVAIIRSSGTTYYADSVKGRFTISRDNAKNTVYLQMNSLKPEDTAVYYCNADGYPLGDKYDYWGQGTQVTVSS | high polyreactivity
QVQLVESGGGLVQAGGSLRLSCAASGSILQPNAMGWYRQAPGKERELVASITFSAGRTYYADSVKVRFTISRDNAKNTVYLQMNCLKPEDTAVYYCKAASDYRSSDYDYWGQGTQVTVSS | low polyreactivity
QVQLVESRGGLVQAGGSLRLSCAASGFIFRYYAMGWYRQEPGKDSELVAAISWSGGSTYYADSVKGRFTISRDNAKNTVYLQMNSLKPEDTAVYYCAADRYAILFYAEDYWGQGTQVTVSS | low polyreactivity
QVQLVESGGGLVQAGGSLRLSCAASGSIFATNAMGWYRQAPGKERELVATITNSGASTSYADSVKGRFTISRDNAKNTVYLQMNSLKPEDTAVYYCNAYGYRAYGVRGYTYGYDYWGQGTQVTVSS | low polyreactivity
QVQLVESGGGLVQAGGSLRLSCAASGRIFDRYAMGWYRQAPGKERELVASITSSGGNTYYADSVKGRFTISRDNAKNTVYFQMNSLKPEDTAVYYCAKPQRVWQYGNYYYWGQGTQVTVSS | high polyreactivity
QVQLVESGGGLVQAGVSLRLSCAASGRTFTSYPMGLYRQAPGKERELVAAISSRGGSTSYADSVKGRLTISRDNANNTVYLQMNSLKEEDTAVYYCARRIRQQRFGGNYWGQGTQVTVSS | high polyreactivity
QVQLVESGGGLVPAGGSLRLSCAASGFIILYYAMGWYRHEPGKERELVAAITTRGGRTYYADSVKGRFTISRDNAKNTVYLQMYSLKPEDTALYYCAADHLYWGLEDESWGQGTQVTVSS | low polyreactivity
QVQLVESGGGLVQAGGSLRLSCAASGRNFPRYAMGWYRQAPGKERELVAAISWRGGSTRYADSVKGRFTISRDNEKNTVYLQMNSLKPEDTAVYYCAAEFWFFPGWAYEYWGQGTQVTVSS | high polyreactivity
QVQLVESGGGLVQAGGSLRLSCAASGMIFVNAMGWYRQAPGKEREFVAAITYSTGSTYYADSVKGRFTISRDNAKNTVYLQMNSLKPEDTAVYYCAKDRSGHGTERDYWGQGTQVTVSS | low polyreactivity
QVQLVESGGGLVQAGGSLRLSCAASGFTFRGNVMGWYRQAPGKERELVAGISSTGSGRTYYADSVKGRFTISRDNAKNTVYLQMNSLKPEDTAVYYCAASRTLRKHRYEYWGQGTQVTVSS | high polyreactivity
QVQLVESGGGLVQAGGSLRLSCAASGRIFVSNAMGWYRQAPGKERELVAGITWTSGSTYYADSVKGRFTISRDNAKNTFYLQMNSLKPEDSAVYYCAAEFWYGNALDYWGQGTQVTVSS | low polyreactivity
QVQLVESGGGLVQAGGSLRLSCAASGSIFYSNVMGWYRQAPGKERELVAAIRYSGVGTYYADSVKGRFTISRDNAKNTVYLQMNSLKPEDTAVYYCNAVTKVGYLRRRDYWGQGTQVTVSS | low polyreactivity
QVQLVESGGGLVQAGGSLRISSAASGSIFLVNALGWYRHAPGKERELVAGISDGGSTYYADSVKGRFTISRDNAKNSVYLLLICLKPEDTAVYFCAAESEQWFSYVLSYDWESDSWGQGSQVTVSS | low polyreactivity
QVQLVESGGGLVQAGGSLRLSCAASGSIFFLYAMGWYRQATGKEREFVAAITGTADSTYYADSVKGRFTISRDDAKNTVYLQMNSLNPEDTAVYYCATDYWSSVKLDDYWGQGTQVTVSS | low polyreactivity
